This assay addresses asialoglycoprotein receptor (UniProt P34927). The assay can be described thus: cell-based or functional assay.
Sequence of UniProt P34927 (P34927 whole entry, chain 1 of 2): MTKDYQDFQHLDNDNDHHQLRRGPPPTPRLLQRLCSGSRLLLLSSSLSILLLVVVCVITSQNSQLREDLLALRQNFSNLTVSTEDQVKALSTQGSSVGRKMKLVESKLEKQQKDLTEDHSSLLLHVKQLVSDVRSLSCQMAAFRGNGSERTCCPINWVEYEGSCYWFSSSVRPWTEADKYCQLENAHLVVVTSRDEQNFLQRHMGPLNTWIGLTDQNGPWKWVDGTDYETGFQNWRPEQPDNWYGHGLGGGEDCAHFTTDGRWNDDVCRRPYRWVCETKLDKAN
Sequence of UniProt P34927 (P24721 whole entry, chain 2 of 2, further chain): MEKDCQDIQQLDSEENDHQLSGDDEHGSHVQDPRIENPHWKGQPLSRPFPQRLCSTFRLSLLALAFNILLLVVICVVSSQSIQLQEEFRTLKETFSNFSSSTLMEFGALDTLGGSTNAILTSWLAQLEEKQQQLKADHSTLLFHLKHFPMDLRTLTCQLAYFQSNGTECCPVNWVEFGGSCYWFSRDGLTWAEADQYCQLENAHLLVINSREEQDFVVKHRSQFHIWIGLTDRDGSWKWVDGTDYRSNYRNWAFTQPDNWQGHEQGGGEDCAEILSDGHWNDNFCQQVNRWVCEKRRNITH

As to “asialofetuin (from UniProt P12763 19-359) (ligand)”, the inhibition of uptake/expression of the cis pT/GFP/SB in the liver (confocal microscopy of GFP, mice coadministered asialofetuin) was over 80%.

The record behind these values is patent US20020115216A1.
